Residue numbers refer to the chain shown, from its start. Like-named read-outs stand apart in the source and are kept apart here.
T1: G603A peptide (HER2 603-622 with G603A) (human)
T1 peptide: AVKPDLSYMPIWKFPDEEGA

T2: S609A peptide (HER2 603-622 with S609A) (human)
T2 peptide: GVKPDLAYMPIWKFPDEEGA

T3: P612A peptide (HER2 603-622 with P612A) (human)
T3 peptide: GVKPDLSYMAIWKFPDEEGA

T4: W614A peptide (HER2 603-622 with W614A) (human)
T4 peptide: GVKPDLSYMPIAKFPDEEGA

T5: V604A peptide (HER2 603-622 with V604A) (human)
T5 peptide: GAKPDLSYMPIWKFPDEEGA

T6: D618A peptide (HER2 603-622 with D618A) (human)
T6 peptide: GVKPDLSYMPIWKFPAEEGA

T7: P606A peptide (HER2 603-622 with P606A) (human)
T7 peptide: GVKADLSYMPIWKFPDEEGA

T8: HER2_604-622C peptide (NH2-VKPDLSYMPIWKFPDEEGAC-COOH) (human)
T8 construct: KLH was added for immunisation, the peptide itself was coated in the screening ELISA
T8 peptide: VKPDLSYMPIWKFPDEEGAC

T9: K605A peptide (HER2 603-622 with K605A) (human)
T9 peptide: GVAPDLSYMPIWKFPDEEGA

T10: I613A peptide (HER2 603-622 with I613A) (human)
T10 construct: also called 1613A
T10 peptide: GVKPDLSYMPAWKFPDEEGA

T11: E619A peptide (HER2 603-622 with E619A) (human)
T11 peptide: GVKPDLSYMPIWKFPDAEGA

T12: F616A peptide (HER2 603-622 with F616A) (human)
T12 peptide: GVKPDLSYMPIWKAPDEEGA

T13: M611A peptide (HER2 603-622 with M611A) (human)
T13 peptide: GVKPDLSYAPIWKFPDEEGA

T14: D607A peptide (HER2 603-622 with D607A) (human)
T14 peptide: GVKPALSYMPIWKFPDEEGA

T15: L608A peptide (HER2 603-622 with L608A) (human)
T15 peptide: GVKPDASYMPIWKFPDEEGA

T16: HER2 peptide p603-622 (amino acids 603 to 622 of human HER2) (human)
T16 construct: Synthetic peptide; also called wild-type HER2 peptide
T16 peptide: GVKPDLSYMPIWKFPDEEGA

T17: P617A peptide (HER2 603-622 with P617A) (human)
T17 peptide: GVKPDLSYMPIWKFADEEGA

T18: K615A peptide (HER2 603-622 with K615A) (human)
T18 peptide: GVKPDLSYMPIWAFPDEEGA

T19: Y610A peptide (HER2 603-622 with Y610A) (human)
T19 peptide: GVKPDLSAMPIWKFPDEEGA

T20: E620A peptide (HER2 603-622 with E620A) (human)
T20 peptide: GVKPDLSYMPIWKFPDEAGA

T21: G621A peptide (HER2 603-622 with G621A) (human)
T21 peptide: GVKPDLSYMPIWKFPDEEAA

B1: H2Mab-294 antibody (antibody, mouse IgG1, kappa, V domains shown)
VH: EVQLVESGGGLVQPGGSLKLSCAASGFTFSSYGMSWVRQTPDKRLELVATINSNGGGTYYPDSVKGRFTISRDNAKNTLYLQMSSLKSEDTAIYYCASPGSWFPYWGQGTLVTVSA
VL: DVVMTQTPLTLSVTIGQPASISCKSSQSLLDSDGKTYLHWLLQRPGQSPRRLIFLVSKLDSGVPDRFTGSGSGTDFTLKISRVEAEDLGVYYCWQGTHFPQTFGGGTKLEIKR
B2: H2Mab-293 antibody (antibody, mouse IgG3, V domains shown)
VH: EVQLVESGGGLVQPGGSLKLSCAASGFTFSNYGIFWVRQTPDKRLELVATVKSNGGSTYYPDSVKGRFTISRDNAKKTLYLQMSSLKSEDTAMYYCAREGGDYWGQGTSVTVSS
VL: DIVMTQSHKFMSTSVGDRVSITCKASQDVGTAVAWYQQKPGQSPKLLIYWTSTRHIGVPDRFTGSGSGTDFTLTIRNVQSEDLANYFCQQYSKNPLTFGAGTKLELKR
B3: H2Mab-295 antibody (antibody, mouse IgG1, kappa, V domains shown)
VH: EVQLQQSGPELVKPGASRKISCKASGYSFTGYTMNWVKKSHGKNLEWIGLINPYNGGTRYNQKFKGKATLTVDKSSSTAYMELLSLTSEDSAVYYCVKEPSDYWGQGTTLTVSS
VL: DVVMTQTPLSLPVSLGDQASISCRSSQSLVHSNGNTYLHWYLQKPGQSPKLLIYKVSKRFSGVPDRFSGCGSGTDFTLKISRLEAEDLGVYFCSQSSHVPPTFGGGTKLEIKR
B4: H2Mab-286 antibody (antibody, mouse IgG1, kappa, V domains shown)
VH: DVQLQESGPGLVKPSQSLSLTCTVTGYSITSDYGWNWIRQFPGNKLEWMGYIRYSGITSYNPSLKSRISITRDTSKNQFFLQLNSVTTEDTATYYCTREVLSWGQGTTLTVSS
VL: B3 VL with Y41F, K58N, D65A, C70S, L83V, S97T
B5: H2Mab-296 antibody (antibody, mouse IgG1, kappa, V domains shown)
VH: QVTLKESGPGILQPSQTLSLTCSFSGFSLSTSGMGVGWIRQPSGKGLEWLAHIWWDDDKRYNPALKSRLTISKDTSSNQVFLKIANVDTSDTATYYCSRIEGQRGFAYWGQGTLVTVSA
VL: DIVMSQSPSSLAVSVGEMITMTCKSSQSLLYSRNQKNYLAWYQQKPGQSPKLLIYWASTRESGVPDRFTGSGSGTDFTLTISSVKAEDLAVYYCQQYYSQPYTFGGGTKLEIKR
B6: H2Mab-298 antibody (antibody, mouse IgG1, kappa, V domains shown)
VH: DVKLVESGGGLVKPGGSLKLSCAASGFTFSRYSMSWVRQTPEKKLEWVAIISTGGSYMFYPDSAKGRFTISRDDAKNTLYLQMSSLKSEDTAMYYCTREAGDYWGQGTTLTVSS
VL: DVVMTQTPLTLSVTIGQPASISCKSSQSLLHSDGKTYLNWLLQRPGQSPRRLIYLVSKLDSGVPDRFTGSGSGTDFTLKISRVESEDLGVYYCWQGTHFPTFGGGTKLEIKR

Legend:
Test in all cases: peptide ELISA, OD 655 nm
[1] = biological target: T1, G603A peptide (HER2 603-622 with G603A)
[2] = biological target: T2, S609A peptide (HER2 603-622 with S609A)
[3] = biological target: T3, P612A peptide (HER2 603-622 with P612A)
[4] = biological target: T4, W614A peptide (HER2 603-622 with W614A)
[5] = biological target: T5, V604A peptide (HER2 603-622 with V604A)
[6] = biological target: T6, D618A peptide (HER2 603-622 with D618A)
[7] = biological target: T7, P606A peptide (HER2 603-622 with P606A)
[8] = biological target: T8, HER2_604-622C peptide …
[9] = biological target: T9, K605A peptide (HER2 603-622 with K605A)
[10] = biological target: T10, I613A peptide (HER2 603-622 with I613A)
[11] = biological target: T11, E619A peptide (HER2 603-622 with E619A)
[12] = biological target: T12, F616A peptide (HER2 603-622 with F616A)
[13] = biological target: T13, M611A peptide (HER2 603-622 with M611A)
[14] = biological target: T14, D607A peptide (HER2 603-622 with D607A)
[15] = biological target: T15, L608A peptide (HER2 603-622 with L608A)
[16] = biological target: T16, HER2 peptide p603-622 (amino acids 603 …)
[17] = biological target: T17, P617A peptide (HER2 603-622 with P617A)
[18] = biological target: T18, K615A peptide (HER2 603-622 with K615A)
[19] = biological target: T19, Y610A peptide (HER2 603-622 with Y610A)
[20] = biological target: T20, E620A peptide (HER2 603-622 with E620A)
[21] = biological target: T21, G621A peptide (HER2 603-622 with G621A)
[22] = biological target: T4, W614A peptide (HER2 603-622 with W614A)
[23] = biological target: T12, F616A peptide (HER2 603-622 with F616A)

binding result [1] | binding result [2] | binding result [3] | binding result [4] | binding result [5] | binding result [6] | binding result [7] | binding result [8] | binding result [9] | binding result [10] | binding result [11] | binding result [12] | binding result [13] | binding result [14] | binding result [15] | binding result [16] | binding result [17] | binding result [19] | binding result [20] | binding result [21] | further results | Binder
binds | binds | binds | no binding (tested: 10 ug/ml) | binds | binds | binds | binds | binds | binds | binds | binds | binds | binds | binds | binds | binds | binds | binds | binds | binding result [18]: binds | B1
binds | binds | binds | binds | binds | binds | binds | binds | binds | binds | binds | binds | binds | binds | binds | binds | binds | binds | binds | binds | binding result [18]: binds | B2
binds | binds | binds | binds | binds | binds | binds | binds | binds | binds | binds | binds | binds | binds | binds | binds | binds | binds | binds | binds | binding result [18]: binds | B3
– | – | – | – | – | – | – | – | – | – | – | – | – | – | – | – | – | – | – | – | binding result [22]: no binding (tested: 10 ug/ml); binding result [23]: no binding (tested: 10 ug/ml) | B4
binds | binds | binds | binds | binds | binds | binds | binds | binds | binds | binds | no binding (tested: 10 ug/ml) | binds | binds | binds | binds | binds | binds | binds | binds | – | B5
binds | binds | binds | binds | binds | binds | binds | binds | binds | binds | binds | binds | binds | binds | binds | binds | binds | binds | binds | binds | binding result [18]: binds | B6

Reference: patent US20240002531A1 (ONO PHARMACEUTICAL, published 2024)
